{"source": "paper PMC5173029", "biological_target": "Recombinant FIP-sch3 from Stachybotrys chartarum (Stachybotrys chartarum IBT 7711)", "assay": "SEC; Superdex 75 (10/300 GL) gel filtration in PBS (10 mM, pH 7.2) after the GST tag was removed; markers 66, 43, 29 and 17 kDa; calculated mass about 28.3 kDa against 14.1 kDa for the monomer"}
{"substance": "Recombinant FIP-sch3 from Stachybotrys chartarum (natural protein)", "values": [{"measurement": "stoichiometry N", "value": 2}]}
